Reference: publication PMC3530481

Molecular target: collagen VI tetramers from bovine cornea (bovine)
Test: ELISA; solid-phase binding: collagen VI tetramers coated (10 ug in 100 ul TBS, overnight 4 C), recombinant WARP dimer 0-1 uM in TBS, 1 h at room temperature, detected with sheep anti-WARP serum; Scatchard analysis, apparent Kd

Kd: 22 nM
B1: recombinant human WARP (von Willebrand factor A-domain related protein), dimer (natural protein)
chain: ERGPPASAPRGDLMFLLDSSASVSHYEFSRVREFVGQLVAPLPLGTGALRASLVHVGSRPYTEFPFGQHSSGEAAQDAVRASAQRMGDTHTGLALVYAKEQLFAEASGARPGVPKVLVWVTDGGSSDPVGPPMQELKDLGVTVFIVSTGRGNFLELSAAASAPAEKHLHFVDVDDLHIIVQELRGSILDAMRPQQLHATEITSSGFRLAWPPLLTADSGYYVLELVPSAQPGAARRQQLPGNATDWIWAGLDPDTDYDVALVPESNVRLLRPQILRVRTRPGEAGPGASGPESGAGPAPTQLAALPAPEEAGPERIVISHARPRSLRVSWAPALGSAAALGYHVQFGPLRGGEAQRVEVPAGRNCTTLQGLAPGTAYLVTVTAAFRSGRESALSAKACTPDGPRPRPRPVPRAPTPGTASREP
